Experiment [1] concerns the target T1, ectodomain of murine βKlotho (F53 to L995 of SEQ ID NO: 218) with a C-terminal FLAG tag (murine, UniProt Q99N32 53-995).
T1 construct: Expressed in HEK293 cells and purified from culture media; also called βKlotho ectodomain; not shown: C-terminal FLAG tag
T1 sequence: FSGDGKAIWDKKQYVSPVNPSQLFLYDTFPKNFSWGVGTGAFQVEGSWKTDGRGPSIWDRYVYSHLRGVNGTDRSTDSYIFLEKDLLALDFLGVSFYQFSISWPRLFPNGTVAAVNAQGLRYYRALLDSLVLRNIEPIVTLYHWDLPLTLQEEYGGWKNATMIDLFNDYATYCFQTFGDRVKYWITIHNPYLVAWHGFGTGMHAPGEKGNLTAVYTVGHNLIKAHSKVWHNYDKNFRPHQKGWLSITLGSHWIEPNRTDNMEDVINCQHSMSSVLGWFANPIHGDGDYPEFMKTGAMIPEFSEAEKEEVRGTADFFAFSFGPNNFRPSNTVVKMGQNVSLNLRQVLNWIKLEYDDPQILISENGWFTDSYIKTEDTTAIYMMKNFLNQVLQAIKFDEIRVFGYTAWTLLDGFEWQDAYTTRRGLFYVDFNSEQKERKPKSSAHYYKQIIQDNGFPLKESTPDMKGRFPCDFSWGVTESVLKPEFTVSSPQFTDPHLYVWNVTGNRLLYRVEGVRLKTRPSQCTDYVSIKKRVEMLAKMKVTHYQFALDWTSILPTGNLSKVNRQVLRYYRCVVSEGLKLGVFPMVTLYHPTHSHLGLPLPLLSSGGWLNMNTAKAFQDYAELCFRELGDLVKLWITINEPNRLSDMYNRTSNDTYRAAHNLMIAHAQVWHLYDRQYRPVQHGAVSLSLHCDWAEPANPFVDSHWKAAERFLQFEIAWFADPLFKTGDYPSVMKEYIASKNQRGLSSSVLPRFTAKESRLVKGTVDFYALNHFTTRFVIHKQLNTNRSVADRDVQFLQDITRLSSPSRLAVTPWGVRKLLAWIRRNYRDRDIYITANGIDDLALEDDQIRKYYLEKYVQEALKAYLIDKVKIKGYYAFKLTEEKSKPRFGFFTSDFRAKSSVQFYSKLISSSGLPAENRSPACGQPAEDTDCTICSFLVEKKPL
The experiment can be described thus: SPR; βKlotho ectodomain immobilized, FGFR ligand-binding domain as analyte (FIG. 3B). The procedure: FIGS. 3A-3G show the FGFR binding specificity profile of βKlotho. […] Where binding was observed, the dissociation constant (KD) was calculated from the saturation binding curve. The data shown in FIGS. 3A-G are representative of two to five independent experiments.
SPR experiments were performed on a Biacore 2000 instrument (Biacore AB), and all the protein-protein and protein-peptide interactions were studied at 25° C. in HBS-EP buffer (10 mM HEPES-NaOH, pH 7.4, 150 mM NaCl, 3 mM EDTA, 0.005% (v/v) polysorbate 20). Proteins were immobilized by amine coupling on flow channels of research grade CM5 chips (Biacore AB). Proteins were injected over a CM5 chip at a flow rate of 50 μl min⁻¹, and at the end of each protein injection (180 s), HBS-EP buffer (50 μl min⁻¹) was flowed over the chip to monitor dissociation for 180 s. In experiments where βKlotho binding to FGFR was analyzed, the chip surface was then regenerated by injecting 50 μl of 2.0 M NaCl in 10 mM sodium/potassium phosphate, pH 6.5. In experiments where α/βKlotho binding to FGF19/21/23 or binding of the FGFR1c-βKlotho complex to FGF21 was studied, 2.0 M NaCl in 10 mM sodium acetate, pH 4.5 was used for chip regeneration. To control for nonspecific binding in experiments where the ectodomain of αKlotho or βKlotho was immobilized on the chip, β-glucuronidase was coupled to the control flow channel of the chip (˜43-68 fmol/mm²).
(In general: Surface plasmon resonance follows binding to a sensor surface in real time, without labels.)

The target of experiment [2] is T2, 1:1 binary complex of FGFR1c ligand-binding domain and βKlotho ectodomain (human; murine, UniProt P11362 142-365; Q99N32 53-995).
T2 construct: also called FGFR1c-βKlotho complex; FGFR1c-βKlotho; not shown: C-terminal FLAG tag
T2 sequence 1: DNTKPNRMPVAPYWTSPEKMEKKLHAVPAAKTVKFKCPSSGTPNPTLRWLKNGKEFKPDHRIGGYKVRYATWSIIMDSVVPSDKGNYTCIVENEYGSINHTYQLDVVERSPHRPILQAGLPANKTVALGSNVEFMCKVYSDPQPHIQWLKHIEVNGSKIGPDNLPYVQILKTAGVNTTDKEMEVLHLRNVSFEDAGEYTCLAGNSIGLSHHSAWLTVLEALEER
T2 sequence 2: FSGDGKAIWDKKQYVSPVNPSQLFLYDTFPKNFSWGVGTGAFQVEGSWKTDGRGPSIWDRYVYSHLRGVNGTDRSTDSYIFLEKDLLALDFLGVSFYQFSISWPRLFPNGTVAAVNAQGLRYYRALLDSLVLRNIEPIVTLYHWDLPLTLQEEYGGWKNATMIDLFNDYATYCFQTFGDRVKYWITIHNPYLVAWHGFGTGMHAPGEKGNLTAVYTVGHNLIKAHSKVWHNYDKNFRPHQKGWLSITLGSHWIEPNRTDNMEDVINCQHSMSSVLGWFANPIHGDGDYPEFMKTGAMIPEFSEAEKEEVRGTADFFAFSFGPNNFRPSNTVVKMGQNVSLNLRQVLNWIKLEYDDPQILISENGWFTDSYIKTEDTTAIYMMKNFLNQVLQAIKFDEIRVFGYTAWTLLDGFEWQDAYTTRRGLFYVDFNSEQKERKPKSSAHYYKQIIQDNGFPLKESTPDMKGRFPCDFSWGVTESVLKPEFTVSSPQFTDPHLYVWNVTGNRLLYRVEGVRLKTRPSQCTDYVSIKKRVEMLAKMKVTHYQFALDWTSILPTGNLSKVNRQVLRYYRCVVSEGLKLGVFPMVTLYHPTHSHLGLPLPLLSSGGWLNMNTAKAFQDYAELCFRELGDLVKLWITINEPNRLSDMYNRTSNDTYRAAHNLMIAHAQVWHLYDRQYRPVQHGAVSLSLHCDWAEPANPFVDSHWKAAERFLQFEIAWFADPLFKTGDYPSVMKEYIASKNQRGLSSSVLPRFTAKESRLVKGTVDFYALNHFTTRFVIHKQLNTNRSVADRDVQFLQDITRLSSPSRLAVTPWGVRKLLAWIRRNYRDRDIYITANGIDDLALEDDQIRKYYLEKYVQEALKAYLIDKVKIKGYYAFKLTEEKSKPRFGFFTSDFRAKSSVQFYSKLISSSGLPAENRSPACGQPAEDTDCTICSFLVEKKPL
The experiment is described as follows: SPR competition; FGF21 immobilized, FGFR1c-βKlotho complex mixed with an equimolar amount of the chimera (FIG. 15F). How it is done: To examine whether mutants of FGF21 or chimeras composed of a N-terminal portion of FGF21 and a C-terminal portion of FGF19 can compete with wild-type ligand for binding to the FGFR1c-βKlotho complex, FGF21 was immobilized on a chip (˜30 fmol/mm² of flow channel). Increasing concentrations of FGF21 mutant or chimera (0-60 nM) were mixed with a fixed concentration of 1:1 complex of FGFR1c ligand-binding domain and βKlotho ectodomain (10 nM), and the mixtures were passed over the chip. As a control, competition of FGF21 in solution with immobilized FGF21 for binding to the FGFR1c-βKlotho complex was studied. The results are shown in FIGS. 14A to 14D and 15A to 15F.
A competition binding assay was selected over a direct binding assay because its binding data are not confounded by the effects that the coupling of one binding partner to the chip might have. Specifically, it was examined whether a mutant or chimera can compete with native FGF21 for binding to the FGFR1c-βKlotho complex. […] FGF21 was immobilized on a biosensor chip, and mixtures of a fixed concentration of FGFR1c-βKlotho complex with increasing concentrations of either FGF21 mutant or FGF21/FGF19 chimera were passed over the chip. As a control, competition of FGF21 in solution with immobilized FGF21 for binding to the FGFR1c-βKlotho complex was studied.

Experiment [3] addresses T1, ectodomain of murine βKlotho (F53 to …). The experiment can be described thus: SPR; FGF23 immobilized, increasing concentrations of βKlotho ectodomain passed over the chip (FIG. 4C). The source says:
FGF19 was immobilized on a biosensor chip, and increasing concentrations of βKlotho ectodomain were passed over the chip. […] FGF21 was immobilized on a biosensor chip, and increasing concentrations of βKlotho ectodomain were passed over the chip. Note that for any given concentration of βKlotho, the binding response is greater on the FGF19 chip surface than on the FGF21 chip surface. Also note that the FGF19-βKlotho complex dissociates more slowly than the FGF21-βKlotho complex (compare the dissociation phases of the sensorgrams shown in (A) and (B)). […] FGF23 was immobilized on a biosensor chip, and increasing concentrations of βKlotho ectodomain were passed over the chip. […] FGF19 was immobilized on a biosensor chip, and increasing concentrations of αKlotho ectodomain were passed over the chip. […] FGF21 was immobilized on a biosensor chip, and increasing concentrations of αKlotho ectodomain were passed over the chip. […]
SPR experiments were performed on a Biacore 2000 instrument (Biacore AB), and all the protein-protein and protein-peptide interactions were studied at 25° C. in HBS-EP buffer (10 mM HEPES-NaOH, pH 7.4, 150 mM NaCl, 3 mM EDTA, 0.005% (v/v) polysorbate 20). […] In experiments where βKlotho binding to FGFR was analyzed, the chip surface was then regenerated by injecting 50 μl of 2.0 M NaCl in 10 mM sodium/potassium phosphate, pH 6.5.

Consider 3 molecules from patent US20130231277A1 (NEW YORK UNIVERSITY, published 2013).

B1: ligand-binding domain of human FGFR2c (N149 to E368 of SEQ ID NO: 226) (receptor)
chain: NNKRAPYWTNTEKMEKRLHAVPAANTVKFRCPAGGNPMPTMRWLKNGKEFKQEHRIGGYKVRNQHWSLIMESVVPSDKGNYTCVVENEYGSINHTYHLDVVERSPHRPILQAGLPANASTVVGGDVEFVCKVYSDAQPHIQWIKHVEKNGSKYGPDGLPYLKVLKAAGVNTTDKEIEVLYIRNVTFEDAGEYTCLAGNSIGISFHSAWLTVLPAPGREKE
As to B1, in experiment [1], the binding result is given as “binds”.

B2: FGF21^29-197/FGF19^204-216 chimera (H29 to V197 of human FGF21 and T204 to K216 of human FGF19; SEQ ID NO: 205) (ligand)
chain: HPIPDSSPLLQFGGQVRQRYLYTDDAQQTEAHLEIREDGTVGGAADQSPESLLQLKALKPGVIQILGVKTSRFLCQRPDGALYGSLHFDPEACSFRELLLEDGYNVYQSEAHGLPLHLPGNKSPHRDPAPRGPARFLPLPGLPPALPEPPGILAPQPPDVGSSDPLSMVTGLEAVRSPSFEK
notes: Chimera of human FGF21 and human FGF19, purified from E. coli inclusion bodies; also called FGF21^C-tail variant 19-41; printed once as FGF21^29-97/FGF19^204-216
Take B2: in experiment [2], the “percent inhibition of FGFR1c-βKlotho binding to immobilized FGF21 at an equimolar ratio of chimera to complex” value was no more than 75%.

B3: human FGF23, secreted bioactive form (Y25 to I251 of SEQ ID NO: 223) with arginines 176 and 179 replaced with glutamine (ligand)
chain: YPNASPLLGSSWGGLIHLYTATARNSYHLQIHKNGHVDGAPHQTIYSALMIRSEDAGFVVITGVMSRRYLCMDFRGNIFGSHYFDPENCRFQHQTLENGYDVYHSPQYHFLVSLGRAKRAFLPGMNPPPYSQFLSRRNEIPLIHFNTPIPRQHTQSAEDDSERDPLNVLKPRARMTPAPASCSQELPSAEDNSPMASDPLGVVRGGRVNTHAGGTGPEGCRPFAKFI
notes: The cleavage site was mutated to minimize proteolysis; Used as specificity control on the SPR chip
On to B3, for which, in experiment [3], the binding result is recorded as “no binding”.
